By IC50 is commonly meant the concentration at which inhibition is half-maximal. The term Ki denotes a dissociation constant, usually derived from enzyme kinetics or from competition with a known ligand.

In assay [1] the target is T1, rat NTS2-YFP receptor (rat, UniProt Q63384 1-416).
T1 construct: whole, on cells; Used as cell membranes of transfected DRG-F11 cells; also called rNTS2-YFP; rNTS2
T1 sequence (Q63384 whole entry, looked up): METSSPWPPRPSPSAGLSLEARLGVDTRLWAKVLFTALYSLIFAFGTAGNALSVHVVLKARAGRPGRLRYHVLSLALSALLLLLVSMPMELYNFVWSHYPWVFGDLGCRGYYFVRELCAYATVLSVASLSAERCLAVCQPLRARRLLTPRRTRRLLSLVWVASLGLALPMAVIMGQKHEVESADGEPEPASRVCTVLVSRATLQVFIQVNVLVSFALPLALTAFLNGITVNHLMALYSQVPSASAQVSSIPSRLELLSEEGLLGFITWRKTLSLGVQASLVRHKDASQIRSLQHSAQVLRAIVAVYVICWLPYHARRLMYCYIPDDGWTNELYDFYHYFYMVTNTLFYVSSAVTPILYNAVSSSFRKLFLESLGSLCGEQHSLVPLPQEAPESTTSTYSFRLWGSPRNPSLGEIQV
The assay is described as follows: displacement of radiolabeled neurotensin from rNTS2-YFP membranes by a single 1 µM dose. Here is the method: (§1) DRG-F11 cells were cultured in DMEM supplemented with 10% FBS, 100 U/mL penicillin, 100 μg/mL streptomycin, and 20 mM HEPES. DRG-F11 were seeded at 2.2×10⁶ cells in a 10 cm Petri dish and transfected 24 h after plating with 10 μg of DNA coding for the rat NTS2-YFP receptor using Xtreme Gene™ HP as a transfection agent. Membrane preparation was conducted 48 h after transfection, as described below.
(§2) Transfected cells expressing the rNTS2-YFP receptor were used 48 h after transfection. Membranes were prepared by scraping cells off the culture dish with 50 mM Tris ph 7.5 and centrifuged at 15,000 g for 5 min at 4° C. The pellet was resuspended in 10 mM Tris, 1 mM EDTA pH 7.5 and sonicated for 30 s prior to be centrifugated at 15,000 g for 30 min at 4° C. The pellet was then re-suspended in binding 9 buffer. […] All other steps in binding experiments were unchanged comparing to the one using the NTS1 receptor.

Assay [2] has as its target rat NTS2-YFP receptor (rat, UniProt Q63384 1-416). The assay is described as above. Here is the method:
as §1, §2

Assay [3] has as its target T1, rat NTS2-YFP receptor. Put plainly: competitive radioligand binding, 125I-[Tyr3]-NT, DRG-F11 membranes expressing rNTS2-YFP. How it is done: as §1, §2
Assay [4] deals with hNTS1-Green fluorescent protein 10(GFP10) (human (printed as hNTS1), UniProt P30989 1-418). The assay is described as follows: cell-based or functional assay.
In assay [5] the target is T2, hNTS1 receptor (human (printed as hNTS1), UniProt P30989 1-418). Put plainly: cell-based or functional assay.
The target in assay [6] is T2, hNTS1 receptor. The assay is described as follows: competitive radioligand binding, 125I-[Tyr3]-NT, CHO-K1 membranes expressing hNTS1; Ki by Cheng-Prusoff.
Assay [7] deals with T2, hNTS1 receptor. The assay is described as follows: competitive radioligand binding, 125I-[Tyr3]-NT, CHO-K1 membranes expressing hNTS1.

Numbered stars: 1 amine (or outer) side, 2 acyl side, 3 side chain; on linkers, the order of the positions; unused ones are H or OH. Bridge positions count the residues as written; N and C are the ends. Square brackets hold non-standard residues; d marks the D form. Ends that are not written are not given here. * marks the point of attachment. nonenoic acid = non-8-enoic acid residue (acyl cap with no amine) whose terminal alkene closes the ring by metathesis with the o-allyl-tyrosine, C=CCCCCCCC(=O)*; Tyr(3-All) = 3-allyl-tyrosine (allyl on ring carbon ortho to the phenol OH), C=CCc1cc(C[C@H](N[*:1])C(=O)[*:2])ccc1O[*:3]; OctenylA = alpha-methyl-octenylalanine = 2-(7-octenyl)alanine; 6‑(allylamino)hexanoyl = C=CCNCCCCCC(=O)*

T2 sequence (P30989 whole entry): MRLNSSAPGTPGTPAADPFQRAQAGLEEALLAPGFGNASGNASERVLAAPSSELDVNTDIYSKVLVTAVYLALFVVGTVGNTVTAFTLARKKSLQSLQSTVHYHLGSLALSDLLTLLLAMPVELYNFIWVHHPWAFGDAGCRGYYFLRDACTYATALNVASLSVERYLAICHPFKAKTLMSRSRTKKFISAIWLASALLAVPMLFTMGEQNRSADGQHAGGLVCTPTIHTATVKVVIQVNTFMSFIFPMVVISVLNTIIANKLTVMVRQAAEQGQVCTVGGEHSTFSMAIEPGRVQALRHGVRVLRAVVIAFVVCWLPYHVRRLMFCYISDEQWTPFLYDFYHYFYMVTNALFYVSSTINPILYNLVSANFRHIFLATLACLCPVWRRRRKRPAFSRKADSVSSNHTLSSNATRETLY
Sequence of hNTS1-Green fluorescent protein 10(GFP10) (P30989 whole entry): as above

B1: 3 c[OctenylAKPY(All)]IL (peptide)
peptide: [OctenylA]KPXIL
modifications: staple 1-4; not fully specified (residue 4); printed as 3 c[OctenylAKPY(All)]IL
notes: Diastereoisomer of compound 12; also called compound 3
As for B1, in assay [1], the “% displ at 1 µM” value was determined as 96%.

B2: NT 8-13 RRPYIL (peptide)
peptide: RRPYIL
notes: also called neurotensin (8-13)
B2: the “% displ at 1 µM” value in assay [2] came to 100%.

B3: 9 c[K(butenyl)KPY(All)]IL (peptide)
peptide: XKPXIL
modifications: residue 1 is N-butenyl-lysine; Tyr is o-allyl-tyrosine; the two joined by ring-closing metathesis; 24 ring atoms
notes: also called compound 9
Turning to B3, the “% displ at 1 µM” value in assay [1] amounted to 104%. In assay [3], the IC50 was 47.2 nM.

B4: 1-M (or 1) c[nonenoic acid KPY(All)]IL (peptide)
peptide: {nonenoic acid}-KP[Tyr(3-All)]IL
modifications: staple (positions not given here); not fully specified (bridges)
notes: Macrocycle; E and Z isomers were not separated; also called compound 1
On to B4, for which the “EC50 β-arr1” value in assay [4] worked out at 1500 nM. The “EC50 G13” value in assay [5] was 433 nM. This molecule had a Ki in assay [6] of 5.6 µM. Moreover, the IC50 in assay [7] came to 394 nM.

B5: 6 c[aminohex-6-enoic acid(All)KPY(All)]IL (peptide)
peptide: {6‑(allylamino)hexanoyl}-KP[Tyr(3-All)]IL
modifications: staple (positions not given here); not fully specified (bridges)
notes: also called compound 6
B5: the “EC50 β-arr1” value in assay [4] worked out at 96 nM. In assay [6], this molecule registered a Ki of 0.656 µM. Further, the “% displ at 1 µM” value in assay [1] turned out to be 93%. The IC50 in assay [3] stood at 2300 nM.

B6: 10 c[K(pentenyl)KPY(All)]IL (peptide)
peptide: XKPXIL
modifications: residue 1 is N-pentenyl-lysine; Tyr is o-allyl-tyrosine; the two joined by ring-closing metathesis; 25 ring atoms
notes: also called compound 10
Turning to B6, the “% displ at 1 µM” value in assay [1] was 105%. The IC50 in assay [3] amounted to 128 nM.

The values are drawn from US20180362582A1 (SOCPRA SCIENCES SANT ET HUMAINES S E C, published 2018).
